According to US20220016257A1 (Daiichi Sankyo, published 2022):

Experiments:
[1] = target: T1, cynomolgus monkey CDH6 (full-length, on cells) (cynomolgus monkey, UniProt P55285 54-790 (human entry)); assay: Cell-ELISA and flow cytometry screening of hybridoma supernatants on transfected cells
T1 construct: Expressed from pcDNA3.1-cynoCDH6 on transfected cells; also called cynoCDH6
T1 sequence: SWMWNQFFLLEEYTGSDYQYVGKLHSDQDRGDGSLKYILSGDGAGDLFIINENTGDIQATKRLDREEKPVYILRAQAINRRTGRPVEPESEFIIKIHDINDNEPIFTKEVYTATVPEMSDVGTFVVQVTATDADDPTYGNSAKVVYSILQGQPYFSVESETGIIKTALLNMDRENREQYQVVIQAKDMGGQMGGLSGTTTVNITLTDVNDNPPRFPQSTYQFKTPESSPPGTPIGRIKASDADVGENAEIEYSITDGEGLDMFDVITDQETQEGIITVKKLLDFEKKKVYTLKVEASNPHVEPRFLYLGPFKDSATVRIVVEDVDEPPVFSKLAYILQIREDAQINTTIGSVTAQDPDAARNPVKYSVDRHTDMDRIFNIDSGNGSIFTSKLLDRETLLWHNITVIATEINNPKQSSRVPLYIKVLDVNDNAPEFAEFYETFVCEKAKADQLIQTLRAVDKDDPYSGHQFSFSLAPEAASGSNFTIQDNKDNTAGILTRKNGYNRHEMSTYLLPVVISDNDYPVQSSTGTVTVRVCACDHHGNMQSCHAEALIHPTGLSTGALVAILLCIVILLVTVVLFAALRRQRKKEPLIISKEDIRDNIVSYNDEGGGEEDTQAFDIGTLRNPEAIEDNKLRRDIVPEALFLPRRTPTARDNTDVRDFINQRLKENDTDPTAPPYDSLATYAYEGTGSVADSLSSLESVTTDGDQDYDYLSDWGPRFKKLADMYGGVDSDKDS
Method: A coloring reaction was carried out with occasional stirring. Thereafter, 1 M HCl was added to the plate (100 μL/well) to terminate the coloring reaction, followed by measurement of the absorbance at 490 nm using a plate reader (ENVISION: PerkinElmer, Inc.).
The obtained cell suspension was used in flow cytometry analysis.
The binding specificity to cynomolgus monkey CDH6 of an antibody produced from the human CDH6- and cynomolgus monkey CDH6-binding antibody-producing hybridomas that had been selected by Cell-ELISA in Example 1)-4 was further confirmed by flow cytometry. […] Thereafter, the cells were suspended by the addition of the culture supernatant from each hybridoma. The cells were left standing at 4° C. for 1 hour. The cells were washed twice with PBS supplemented with 5% FBS, and thereafter, the cells were suspended by the addition of Anti-Rat IgG FITC conjugate (Sigma-Aldrich Co. LLC) that had been 500-fold diluted with PBS supplemented with 5% FBS. The cells were left standing at 4° C. for 1 hour. The cells were washed twice with PBS supplemented with 5% FBS, and then re-suspended in PBS supplemented with 5% FBS and 2 μg/ml 7-aminoactinomycin D (Molecular Probes, Inc.), followed by detection using a flow cytometer (FC500; Beckman Coulter, Inc.).

[2] = target: T2, EC3-deleted human CDH6 (EC3 deletion mutant, on cells) (human, UniProt P55285 54-790); assay: flow cytometry, 293α cells transiently expressing EC3-deleted hCDH6 (open) against untransfected cells (shaded), anti-rat IgG-FITC [4]
T2 construct: Full-length human CDH6 lacking EC3; Cloned in p3xFLAG-CMV-9; also called EC3-deleted hCDH6
T2 sequence: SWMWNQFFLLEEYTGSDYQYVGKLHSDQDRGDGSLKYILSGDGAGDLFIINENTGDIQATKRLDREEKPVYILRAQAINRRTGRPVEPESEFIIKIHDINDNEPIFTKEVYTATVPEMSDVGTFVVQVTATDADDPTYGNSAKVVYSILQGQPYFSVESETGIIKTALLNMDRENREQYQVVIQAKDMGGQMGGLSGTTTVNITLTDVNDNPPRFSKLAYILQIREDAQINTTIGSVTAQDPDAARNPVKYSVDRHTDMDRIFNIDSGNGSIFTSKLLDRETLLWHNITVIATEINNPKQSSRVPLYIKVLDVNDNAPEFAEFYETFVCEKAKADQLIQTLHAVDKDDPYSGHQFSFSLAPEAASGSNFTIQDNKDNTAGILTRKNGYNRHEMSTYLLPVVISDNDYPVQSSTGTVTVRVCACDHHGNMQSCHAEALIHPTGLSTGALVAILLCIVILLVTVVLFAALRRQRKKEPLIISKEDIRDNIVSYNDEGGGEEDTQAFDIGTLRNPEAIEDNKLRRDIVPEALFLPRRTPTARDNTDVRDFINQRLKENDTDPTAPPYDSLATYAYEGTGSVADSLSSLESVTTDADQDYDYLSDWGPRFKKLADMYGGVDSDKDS
Method: The cells were cultured overnight under conditions of 37° C. and 5% CO₂, treated with TrypLE Express (Thermo Fisher Scientific Inc.), and thereafter, a cell suspension was prepared. […] Thereafter, the cells were suspended by the addition of the anti-CDH6 monoclonal antibody (clone No: rG019), which had been prepared in Example 1)-7, or rat IgG control (R&D Systems, Inc.) (final concentration: 20 nM). The cells were left standing at 4° C. for 1 hour. The cells were washed twice with PBS supplemented with 5% FBS, and then suspended by the addition of Anti-Rat IgG (whole molecule)-FITC antibody produced in rabbit (Sigma-Aldrich Co. LLC) that had been 50-fold diluted with PBS supplemented with 5% FBS. The cells were left standing at 4° C. for 1 hour. The cells were washed twice with PBS supplemented with 5% FBS, followed by detection using a flow cytometer (Canto II; BD Biosciences). The data was analyzed using FlowJo (TreeStar, Inc.). In the histograms of FIGS. 2-1 to 2-2, the abscissa depicts FITC fluorescence intensity indicating the amount of the antibody bound, and the ordinate depicts cell count. […] Fluorescence intensity is enhanced when the antibody binds to full-length hCDH6 or each EC domain deletion mutant on the surface of cells.

B1: rat anti-CDH6 monoclonal antibody rG019 (antibody, IgG2b, V domains shown)
VH: QVQLQQSGAELVKPGSSVKISCKASGYTFTRNFMHWIKQQPGNGLEWIGWIYCGDGETEYNQKFNGKATLTADRSSSTAYMELSRLTSEDSAVYFCARGVYGGFAGGYFDFWGQGVMVTVSS
VL: DIQMTQSPSLLSASVGDRVTLNCKASQNIYKNLAWYQQKLGEGPKLLIYDANTLQTGIPSRFSGSGSGSDFTLTISSLQPEDVATYFCQQYYSGWAFGGVTNLELKRA
notes: Rat antibody purified from hybridoma supernatant; also called rG019 antibody; clone rG019
binding result [1]: binds
binding result [2]: no binding (tested: 20 nM)
